One series concerns the target T1, PGC7 D9 (human, UniProt Q6W0C5 20-95).
T1 sequence: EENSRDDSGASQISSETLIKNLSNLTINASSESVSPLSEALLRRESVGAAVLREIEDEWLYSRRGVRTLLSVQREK
Kind of series: EMSA.

In a further series the target is T2, PGC7 (Dppa3/Stella) (human, UniProt Q6W0C5 1-159).
T2 sequence: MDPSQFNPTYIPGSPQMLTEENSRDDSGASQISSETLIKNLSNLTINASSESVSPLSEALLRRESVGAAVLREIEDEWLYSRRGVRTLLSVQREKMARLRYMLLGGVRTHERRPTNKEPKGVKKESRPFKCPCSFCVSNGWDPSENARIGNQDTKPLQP
Kind of series: EMSA.

The record followed here is article PMC3950671.

B1: PGC7 motif 50-mer (dsDNA)
DNA 1: GAGTAAGATCATGCCACTGCACTTCAGCCTGGGCACAGAGTGAGGCTGGG
DNA 2: CCCAGCCTCACTCTGTGCCCAGGCTGAAGTGCAGTGGCATGATCTTACTC
As for B1, the binding result with PGC7 D9 and in the series with PGC7 (Dppa3/Stella) was “binds” each time.
